System: mammalian cells
Experiment: Cellular toxicity of heterologous synthetase expression
Type: cell-based
Conditions: under the growth conditions used

B1: pMpaRS: EcTyrRS variant Y37V/D182S/F183M that charges BstRNACUA^Tyr with pMpa (protein, UniProt P0AGJ9 2-424, looked up, variant Y37V D182S F183M)
Tyrosine--tRNA ligase: ASSNLIKQLQERGLVAQVTDEEALAERLAQGPIALVCGFDPTADSLHLGHLVPLLCLKRFQQAGHKPVALVGGATGLIGDPSFKAAERKLNTEETVQEWVDKIRKQVAPFLDFDCGENSAIAANNYDWFGNMNVLTFLRDIGKHFSVNQMINKEAVKQRLNREDQGISFTEFSYNLLQGYSMACLNKQYGVVLQIGGSDQWGNITSGIDLTRRLHQNQVFGLTVPLITKADGTKFGKTEGGAVWLDPKKTSPYKFYQFWINTADADVYRFLKFFTFMSIEEINALEEEDKNSGKAPRAQYVLAEQVTRLVHGEEGLQAAKRITECLFSGSLSALSEADFEQLAQDGVPMVEMEKGADLMQALVDSELQPSRGQARKTIASNAITINGEKQSDPEYFFKEEDRLFGRFTLLRRGKKNYCLICWK
B1 was tested, and the “cellular toxicity of heterologous expression” value was “did not show any apparent cellular toxicity”.
